Assay results published in patent US20240116985A1 (published 2024).
Starred links: 1 amine or outer side, 2 acyl side, 3 side chain; linkers in the order of their positions; H or OH if unused. Positions of bridges follow the written chain, without caps; N, C: chain ends. Non-standard residues stand in square brackets, D forms with d. Primed or numbered codes have the meaning given here. *: point of attachment. PyrS2″ = (S)-3-amino-1-((pent-4-en-1-yloxy)carbonyl)pyrrolidine-3-carboxylic acid (stapling residue), C=CCCCOC(=O)N1CC[C@@](N[*:1])(C(=O)[*:2])C1; (bismethoxyethylamine)GlnR = [bismethoxyethylamine]GlnR, N5,N5-bis(2-methoxyethyl)-L-glutamine, COCCN(CCOC)C(=O)CC[C@H](N[*:1])C(=O)[*:2]; B5(16) = 2-amino-2-(pent-4-en-1-yl)hept-6-enoic acid = 2,2-bis(4-pentenyl)glycine (stitching residue), C=CCCCC(CCCC=C)(N[*:1])C(=O)[*:2]; B5(4) = 2,2-bis(4-pentenyl)glycine = 2-amino-2-(pent-4-en-1-yl)hept-6-enoic acid (stitching residue), C=CCCCC(CCCC=C)(N[*:1])C(=O)[*:2]; (AcPpz)GlnR = [AcPpz]GlnR, (S)-5-(4-acetylpiperazin-1-yl)-2-amino-5-oxopentanoic acid, CC(=O)N1CCN(C(=O)CC[C@H](N[*:1])C(=O)[*:2])CC1; TfeGA = (S)-2-amino-3-((carboxymethyl)(2,2,2-trifluoroethyl)amino)propanoic acid, O=C([C@H](CN(CC(=O)[*:3])CC(F)(F)F)N[*:1])[*:2]; (4Pippip)GlnR″ = (S)-5-([1,4'-bipiperidin]-1'-yl)-2-amino-5-oxopentanoic acid, O=C(CC[C@H](N[*:1])C(=O)[*:2])N1CCC(N2CCCCC2)CC1; PyrS2 = (S)-3-amino-1-((pent-4-en-1-yloxy)carbonyl)pyrrolidine-3-carboxylic acid, C=CCCCOC(=O)N1CC[C@@](N[*:1])(C(=O)[*:2])C1; (AcPpz)GlnR″ = (S)-5-(4-acetylpiperazin-1-yl)-2-amino-5-oxopentanoic acid, CC(=O)N1CCN(C(=O)CC[C@H](N[*:1])C(=O)[*:2])CC1; (Morph)GlnR″ = [Morph]GlnR, (S)-2-amino-5-morpholino-5-oxopentanoic acid, O=C(CC[C@H](N[*:1])C(=O)[*:2])N1CCOCC1; Phe(3-COOH) = N[C@@H](Cc1cccc(C(=O)O)c1)C(=O)O; Phe(2-CF3) = N[C@@H](Cc1ccccc1C(F)(F)F)C(=O)O; Phe(2-Cl) = N[C@@H](Cc1ccccc1Cl)C(=O)O; dαMeGly(allyl) = C=CC[C@@](C)(N)C(=O)O; Bta = N[C@@H](Cc1csc2ccccc12)C(=O)O; αAllylPro = C=CC[C@@]1(C(=O)O)CCCN1; tBuAla = CC(C)(C)C[C@H](N)C(=O)O; 3Thi = N[C@@H](Cc1ccsc1)C(=O)O; Cha = N[C@@H](CC1CCCCC1)C(=O)O; R5 = C=CCCC[C@@](C)(N)C(=O)O; Nle = CCCC[C@H](N)C(=O)O; NH(CH2)6NH2 = NCCCCCCN*; Abu = CC[C@H](N)C(=O)O; Aib = CC(C)(N)C(=O)O

T1: B-cat-Halo (beta-catenin HaloTag construct expressed in HEK293 cells) (UniProt P35222 1-781)
T1 sequence (looked up): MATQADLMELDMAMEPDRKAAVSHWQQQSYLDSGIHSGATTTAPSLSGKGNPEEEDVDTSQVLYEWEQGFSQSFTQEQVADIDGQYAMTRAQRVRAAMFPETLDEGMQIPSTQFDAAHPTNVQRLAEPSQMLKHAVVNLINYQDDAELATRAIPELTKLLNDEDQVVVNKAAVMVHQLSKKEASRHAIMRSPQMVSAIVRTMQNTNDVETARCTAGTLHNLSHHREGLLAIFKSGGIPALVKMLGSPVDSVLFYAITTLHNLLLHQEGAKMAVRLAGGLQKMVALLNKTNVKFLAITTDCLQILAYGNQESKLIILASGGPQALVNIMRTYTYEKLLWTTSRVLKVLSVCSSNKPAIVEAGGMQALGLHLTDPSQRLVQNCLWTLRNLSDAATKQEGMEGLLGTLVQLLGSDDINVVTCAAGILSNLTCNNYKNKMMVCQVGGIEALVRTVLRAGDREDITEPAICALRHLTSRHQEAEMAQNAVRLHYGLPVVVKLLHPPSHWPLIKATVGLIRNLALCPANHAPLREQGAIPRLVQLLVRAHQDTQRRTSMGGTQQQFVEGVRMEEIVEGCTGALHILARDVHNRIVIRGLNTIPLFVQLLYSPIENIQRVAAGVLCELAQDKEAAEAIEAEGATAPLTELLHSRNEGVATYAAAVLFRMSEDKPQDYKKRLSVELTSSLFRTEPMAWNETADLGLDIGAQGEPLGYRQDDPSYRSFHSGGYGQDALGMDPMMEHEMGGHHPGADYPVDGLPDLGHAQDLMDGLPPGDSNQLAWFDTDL

T2: B-cat-Halo (UniProt P35222 1-781)
T2 sequence (looked up): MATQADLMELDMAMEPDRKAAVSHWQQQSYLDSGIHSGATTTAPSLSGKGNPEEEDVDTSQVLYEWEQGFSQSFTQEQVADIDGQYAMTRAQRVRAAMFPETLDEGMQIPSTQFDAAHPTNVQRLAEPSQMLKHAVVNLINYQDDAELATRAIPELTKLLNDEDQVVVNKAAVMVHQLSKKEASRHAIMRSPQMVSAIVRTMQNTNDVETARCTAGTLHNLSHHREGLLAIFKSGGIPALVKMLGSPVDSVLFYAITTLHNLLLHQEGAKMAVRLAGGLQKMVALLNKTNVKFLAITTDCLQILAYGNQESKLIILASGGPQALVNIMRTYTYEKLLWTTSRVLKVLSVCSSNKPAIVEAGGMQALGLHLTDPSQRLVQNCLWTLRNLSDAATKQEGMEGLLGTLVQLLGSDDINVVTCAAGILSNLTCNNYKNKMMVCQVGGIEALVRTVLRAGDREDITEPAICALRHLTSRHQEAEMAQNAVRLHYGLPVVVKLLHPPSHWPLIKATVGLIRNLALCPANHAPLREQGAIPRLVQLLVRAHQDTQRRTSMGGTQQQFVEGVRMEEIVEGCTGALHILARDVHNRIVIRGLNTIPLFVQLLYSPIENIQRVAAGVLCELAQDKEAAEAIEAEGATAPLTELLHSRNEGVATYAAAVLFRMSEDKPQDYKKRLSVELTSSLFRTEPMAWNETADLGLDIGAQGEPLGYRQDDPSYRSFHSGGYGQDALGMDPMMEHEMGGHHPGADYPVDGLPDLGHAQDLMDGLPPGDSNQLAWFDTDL

T3: B-cat-Halo (beta-catenin HaloTag fusion expressed in HEK293 cells) (UniProt P35222 1-781)
T3 sequence (looked up): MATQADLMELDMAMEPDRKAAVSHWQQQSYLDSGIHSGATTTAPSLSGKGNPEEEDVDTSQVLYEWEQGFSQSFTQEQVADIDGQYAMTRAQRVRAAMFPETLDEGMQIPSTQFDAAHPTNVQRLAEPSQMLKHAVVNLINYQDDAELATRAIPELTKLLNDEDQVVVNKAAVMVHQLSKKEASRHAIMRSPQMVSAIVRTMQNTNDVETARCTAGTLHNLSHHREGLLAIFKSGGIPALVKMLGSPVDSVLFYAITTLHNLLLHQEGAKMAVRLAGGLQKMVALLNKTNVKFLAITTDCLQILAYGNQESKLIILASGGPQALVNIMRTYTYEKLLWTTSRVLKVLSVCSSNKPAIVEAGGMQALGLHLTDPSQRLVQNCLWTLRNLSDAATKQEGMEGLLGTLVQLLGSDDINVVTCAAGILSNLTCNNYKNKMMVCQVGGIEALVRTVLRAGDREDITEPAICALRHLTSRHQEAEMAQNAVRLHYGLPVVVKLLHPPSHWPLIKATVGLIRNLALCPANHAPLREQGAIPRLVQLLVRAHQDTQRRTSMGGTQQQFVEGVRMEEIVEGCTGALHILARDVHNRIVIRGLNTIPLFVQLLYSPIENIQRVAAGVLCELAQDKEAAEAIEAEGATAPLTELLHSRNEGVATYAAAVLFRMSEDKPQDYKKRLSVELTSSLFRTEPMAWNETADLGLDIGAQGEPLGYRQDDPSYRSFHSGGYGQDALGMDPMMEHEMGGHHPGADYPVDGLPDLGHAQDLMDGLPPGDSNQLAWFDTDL


What was measured:
Assay in all cases: cell-based or functional assay
[1] = molecular target: T1, B-cat-Halo (beta-catenin HaloTag …)
B-cat-Halo = molecular target: T2, B-cat-Halo
[2] = molecular target: T3, B-cat-Halo (beta-catenin HaloTag fusion …)

Binder | NanoBRET Abs IC50 (B-cat-Halo) [µM] | NanoBRET Abs IC50 [2] [µM] | further results
Ac-[αAllylPro]D[tBuAla][B5(4)]D[Phe(3-COOH)]AAFL[PyrS2″][Phe(2-CF3)][Bta][Me2Gln]-NH2 (staple 1-4, 4-11) [I-2532] |  |  | NanoBRET Abs IC50 (uM); Bcat-Halo / TCF4-Luc in HEK293 cells [1]: 4.5 µM
Ac-[αAllylPro]D[Cha][B5(16)]DDAAFN[PyrS2″][Phe(2-Cl)][Bta]Q-NH2 (staple 1-4, 4-11) [I-1040] | 9.3 |  | 
Ac-[αAllylPro]D[Cha][B5(16)]DDAAFS[PyrS2″][Phe(2-Cl)][Bta]Q-NH2 (staple 1-4, 4-11) [I-1044] | 17.6 |  | 
Ac-[αAllylPro]D[Cha][B5(4)]DDAAFS[PyrS2][Phe(2-Cl)][Bta]S-NH2 (staple 1-4, 4-11) [I-1050] | 24.8 |  | 
Ac-[αAllylPro]D[tBuAla][B5(4)]D[Phe(3-COOH)][Aib]AF[Nle][PyrS2″][3Thi][Bta][(Morph)GlnR″]-NH2 (staple 1-4, 4-11) [I-2553] |  | 8.2 | 
Ac-[αAllylPro]D[tBuAla][B5(4)]D[TfeGA]AAFT[PyrS2][Phe(2-Cl)][Bta]Q-{NH(CH2)6NH2} (staple 1-4, 4-11) [I-1061] | 10.3 |  | 
Ac-[αAllylPro]D[tBuAla][B5(4)]DDAAFL[PyrS2″][Phe(2-Cl)][Bta]Q-NH2 (staple 1-4, 4-11) [I-1062] | 4.7 |  | 
Ac-[αAllylPro]D[tBuAla][B5(4)]D[Phe(3-COOH)][Aib]AF[Nle][PyrS2″][3Thi][Bta][(bismethoxyethylamine)GlnR]-NH2 (staple 1-4, 4-11) [I-2554] |  | 3.3 | 
Ac-[αAllylPro]D[Cha][B5(4)]DDAAFT[PyrS2″][Phe(2-Cl)][Bta]S-NH2 (staple 1-4, 4-11) [I-1048] | 8.8 |  | 
Ac-[αAllylPro]D[Cha][B5(16)]DDAAFT[PyrS2″][Phe(2-Cl)][Bta]Q-NH2 (staple 1-4, 4-11) [I-1042] | 11.4 |  | 
Ac-[αAllylPro]D[Cha][B5(16)]DDAAFN[PyrS2″][Phe(2-Cl)][Bta]S-NH2 (staple 1-4, 4-11) [I-1046] | 20.5 |  | 

The next lines start with results.

NanoBRET Abs IC50 (B-cat-Halo) [µM] | NanoBRET Abs IC50 [2] [µM] | Binder | further results
 | 24 | Ac-[R5]D[tBuAla][B5(4)]D[Phe(3-COOH)]AAFL[PyrS2″][Phe(2-CF3)][Bta]Q-NH2 (staple 1-4, 4-11; also: -CH=CH- in each staple reduced to -CH2-CH2-) [I-2571] | 
 | 22.1 | Ac-[αAllylPro]D[tBuAla][B5(4)]D[Phe(3-COOH)][Aib]AF[Nle][PyrS2″][3Thi][Bta][(4Pippip)GlnR]-NH2 (staple 1-4, 4-11) [I-2555] | 
 | 21 | Ac-[R5]D[tBuAla][B5(4)]D[Phe(3-COOH)]AAFL[PyrS2″][Phe(2-CF3)][Bta]Q-NH2 (staple 1-4, 4-11; not fully specified; printed as Ac-R5-Asp-Npg-B5-Asp-3COOHF-Ala-Ala-Phe-Leu-PyrS2-2F3MeF-BztA-Gln-NH2) [I-2565] | 
 | 19.3 | Ac-[αAllylPro]D[tBuAla][B5(4)]D[Phe(3-COOH)][Aib]AF[Abu][PyrS2″][3Thi][Bta][(4Pippip)GlnR″]-NH2 (staple 1-4, 4-11) [I-2560] | 
 | > 20 | Ac-P[dαMeGly(allyl)]D[tBuAla][B5(4)]D[Phe(3-COOH)]AAFL[PyrS2″][Phe(2-CF3)][Bta]Q-NH2 (staple 5-12, 2-5; also: -CH=CH- in each staple reduced to -CH2-CH2-) [I-2572] | 
 | 17 | Ac-[dαMeGly(allyl)]D[tBuAla][B5(4)]D[Phe(3-COOH)]AAFL[PyrS2″][Phe(2-CF3)][Bta]Q-NH2 (staple 1-4, 4-11) [I-2563] | 
 | 7 | Ac-[αAllylPro]D[tBuAla][B5(4)]D[Phe(3-COOH)][Aib]AF[Nle][PyrS2″][3Thi][Bta][(AcPpz)GlnR]-NH2 (staple 1-4, 4-11) [I-2556] | 
 | 3.8 | Ac-[αAllylPro]D[tBuAla][B5(4)]D[Phe(3-COOH)][Aib]AF[Abu][PyrS2″][3Thi][Bta][(bismethoxyethylamine)GlnR]-NH2 (staple 1-4, 4-11) [I-2559] | 
 | 14.7 | Ac-[αAllylPro]D[tBuAla][B5(4)]D[Phe(3-COOH)][Aib]AF[Abu][PyrS2″][3Thi][Bta][(Morph)GlnR″]-NH2 (staple 1-4, 4-11) [I-2558] | 
 | 7.2 | Ac-[αAllylPro]D[tBuAla][B5(4)]D[Phe(3-COOH)][Aib]AF[Abu][PyrS2″][3Thi][Bta][(AcPpz)GlnR″]-NH2 (staple 1-4, 4-11) [I-2561] | 
 | 19.6 | Ac-[αAllylPro]D[tBuAla][B5(4)]D[Phe(3-COOH)][Aib]AF[Nle][PyrS2″][3Thi][Bta][(4F3CPip)GlnR]-NH2 (staple 1-4, 4-11) [I-2557] | 
